{
  "source": "patent US6458930B1",
  "about": "“Aspergillus fumigatus cofilin” (Cytokinetics, Inc., priority 2000, dated 2002)",
  "target": "T1, preassembled pyrene-actin filaments (Gallus gallus, UniProt P68139)",
  "T1 construct": "Extract chicken breast acetone powder (as prepared above) in Buffer A; from tissue; host or cells: chicken breast muscle (actin); E. coli (cofilin, made in house)",
  "test": "pyrene actin assay (fluorescence of preassembled pyrene-actin filaments)",
  "format": "biochemical, chicken",
  "conditions": "addition of stoichiometric amounts of cofilin to preassembled pyrene-actin filaments; binding to actin polymer and enhancing depolymerization combined",
  "text": "Assays for the interaction of A. fumigatus cofilin and any other cofilin with actin in 384-well plates using a fluorescence as the detection means have been developed. The assays employ pyrene-labeled actin (Pollard (1984) J Cell Biol 99:769-777).\nUpon addition of cofilin to filamentous pyrene-actin, two well-characterized biochemical activities can be monitored. First, cofilin binds to the filaments and partially quenches the pyrene fluorescence. Second, it induces filament disassembly, further decreasing pyrene fluorescence. The decrease in fluorescence that results when cofilin is added to filamentous actin is monitored (FIG. 3). An inhibitor of the interaction of cofilin with pyrene-actin will result in an increase in fluorescence.\nThis very robust signal can be exploited to an assay for modulators of cofilin. Chicken skeletal actin was used because it can be purified in quantities needed for high throughput screening; it is 90% identical in amino acid sequence to fungal actin, and it can assemble into copolymers with fungal actin. Pyrene-labeled skeletal actin has been prepared and characterized as to its polymerization properties as well as for its interaction with fungal cofilin.",
  "data": [
    {"molecule": "A. fumigatus cofilin: protein of A. fumigatus capable of binding actin, amino acid sequence SEQ ID NO:2, expressed in E. coli (protein, listed as Aspergillus fumigatus) MALASGVSIADECITAFNDFRMSGNKANKTKFIIFKIADNKKEVVIDEVSQEEDYEVFRSRLEATKDSKGNPAPRYAVYDVEYDLGGGEGKRSKIVFISWVPSDTPTLWSMIYASTRENLKNALNIHTSIHADDKGDIEWKTVLAEASGGKAGK", "values": [
      {"measurement": "reduction in fluorescence intensity", "value": "3-5 fold"}
    ]}
  ]
}
